Laboratory results: patent publication US20090221027A1 (BASF AG, priority 2005, published 2009)
Where two headings read alike, the source gives them in different places.

How the values were obtained:
[1] = target: C. glutamicum MetY enzyme (Corynebacterium glutamicum, UniProt Q79VI4); experiment: biochemical
Experimental: Cells were harvested and cell lysates from pellets were obtained using the Ribolyzer protocol and machine (Hybaid, UK). Cell extracts were centrifuged to obtain a soluble supernatant fraction of cytosolic protein. The method to determine the O-acetyl-homoserine sulfhydrylase activity in cell extracts was performed essentially as described in Yamagata, Methods in Enzymology, 1987, Vol. 143 pp 479-480. Cell extracts were added to a buffer of 100 mM KH2PO4 (pH 7.2) containing 5 mM O-acetyl-homoserine and 200 μM pyridoxal phosphate. […] The reaction was initiated by addition of Na-sulphide solution to a final concentration of 4 mM. After a 15 minute incubation at 30° C., the reaction was terminated and acidified by addition of 1/10 volume of 30% trichloroacetic acid. After centrifugation (5 minutes at 13,000 rpm) to remove precipitated protein, incubation at reduced atmospheric pressure in a Speed-Vac evaporator was performed to deplete residual H2S. The sulphide depleted solution was reacted with cyanide and nitroprusside as described in Yamagata supra. Absorption at 520 nm was determined and background corrected.

[2] = H.-S. Lee, personal communication; cited from earlier work
[3] = reported specific activity; Bsu MetI from T7 promoter in E. coli; cited from earlier work
[4] = Cystathionine γ-synthase activity in crude cell extracts; format: biochemical
[5] = reported specific activity; Bsu MetI from T7 promoter in E. coli; cited from earlier work; remark: listed apart in the source
[6] = Inhibition of the enzyme by methionine (Table 1); format: biochemical
[7] = O-acetyl-homoserine sulfhydrylase activity in crude cell extracts; format: biochemical
[8] = in C. glutamicum from P15, crude extracts
[9] = in E. coli from P15, crude extracts

Row | Molecule | IC50 [1] [mM] | Inhibition by methionine [2] | O-Ac-Hse sulfhydrylase activity [3] [µmol/min/mg] | Cystathionine γ-synthase activity [4, 8] [nmol/min] | Cystathionine γ-synthase activity [4, 9] [nmol/min] | Cystathionine γ-synthase activity [5] [µmol/min/mg] | Inhibition by methionine [6, 8] | Inhibition by methionine [6, 9] | O-Ac-Hse sulfhydrylase activity [7, 8] [nmol/min] | O-Ac-Hse sulfhydrylase activity [7, 9] [nmol/min]
1 | CSCC[C@H](N)C(=O)O [methionine, L-methionine] | ~5 | – | – | – | – | – | – | – | – | –
2 | Cg1 MetY: C. glutamicum O-acetylhomoserine sulfhydrylase (protein, UniProt Q79VI4 1-437, looked up) O-acetyl-L-homoserine …: MPKYDNSNADQWGFETRSIHAGQSVDAQTSARNLPIYQSTAFVFDSAEHAKQRFALEDLGPVYSRLTNPTVEALENRIASLEGGVHAVAFSSGQAATTNAILNLAGAGDHIVTSPRLYGGTETLFLITLNRLGIDVSFVENPDDPESWQAAVQPNTKAFFGETFANPQADVLDIPAVAEVAHRNSVPLIIDNTIATAALVRPLELGADVVVASLTKFYTGNGSGLGGVLIDGGKFDWTVEKDGKPVFPYFVTPDAAYHGLKYADLGAPAFGLKVRVGLLRDTGSTLSAFNAWAAVQGIDTLSLRLERHNENAIKVAEFLNNHEKVEKVNFAGLKDSPWYATKEKLGLKYTGSVLTFEIKGGKDEAWAFIDALKLHSNLANIGDVRSLVVHPATTTHSQSDEAGLARAGVTQSTVRLSVGIETIDDIIADLEGGFAAI | – | Yes | 6.0 | – | – | – | – | – | – | –
3 | Bsu MetI: Bacillus subtilis O-acetyl-homoserine sulfhydrylase with cystathionine-gamma-synthase activity, SEQ ID NO:2 (protein) MSQHVETKLAQIGNRSDEVTGTVSAPIYLSTAYRHRGIGESTGFDYVRTKNPTRQLVEDAIANLENGARGLAFSSGMAAIQTIMALFKSGDELIVSSDLYGGTYRLFENEWKKYGLTFHYDDFSDEDCLRSKITPNTKAVFVETPTNPLMQEADIEHIARITKEHGLLLIVDNTFYTPVLQRPLELGADIVIHSATKYLGGHNDLLAGLVVVKDERLGEEMFQHQNAIGAVLPPFDSWLLMRGMKTLSLRMRQHQANAQELAAFLEEQEEISDVLYPGKGGMLSFRLQKEEWVNPFLKALKTICFAESLGGVESFITYPATQTHMDIPEEIRIANGVCNRLLRFSVGIEHAEDLKEDLKQALCQVKEGAVSFE | – | – | 7.0 | 30.2 | 1900 | 1.5 | No | No | 6.3 | 199
